Values of other authors in publication PMC11811815.

Molecular target: Usp18 (Mus musculus) (UniProt Q9WTV6)
Sequence of UniProt Q9WTV6 (Q9WTV6 whole entry): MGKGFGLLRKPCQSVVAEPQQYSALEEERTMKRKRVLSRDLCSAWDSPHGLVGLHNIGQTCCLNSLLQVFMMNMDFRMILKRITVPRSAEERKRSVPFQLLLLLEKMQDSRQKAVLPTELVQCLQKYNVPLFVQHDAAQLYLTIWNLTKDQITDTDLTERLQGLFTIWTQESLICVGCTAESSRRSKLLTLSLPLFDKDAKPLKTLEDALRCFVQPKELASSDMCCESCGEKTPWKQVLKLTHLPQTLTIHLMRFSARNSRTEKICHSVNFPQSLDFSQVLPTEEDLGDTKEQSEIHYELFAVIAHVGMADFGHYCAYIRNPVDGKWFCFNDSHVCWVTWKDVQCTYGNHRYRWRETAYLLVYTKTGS

Substance: Isg15 (from UniProt Q64339)
- Kd: 1300 nM
